Tests used:
[1] = target: T1, human CD4 on cells (SKW3 cells; human PBMCs) (human, UniProt P01730 26-458); experiment: SKW3 FACS binning; competitor RPA-T4-PE-Dazzle 594 added after supernatant (background 783, max binding 15000)
T1 construct: whole, on cells; SKW3 CD4 knockout cells served as the negative cell line for the WT vs KO ratios; also called hCD4; SKW3 WT

[2] = target: T1, human CD4 on cells (SKW3 cells; human …); experiment: SKW3 FACS binning; competitor OKT4-A488 added after supernatant (background 2163, max binding 8200)
[3] = target: T1, human CD4 on cells (SKW3 cells; human …); experiment: FACS confirmation, supernatant on SKW3 WT cells, anti-mFc 647 (Bkrd gMFI = 3300)
[4] = target: T2, huCD4-HIS (human, UniProt P01730 26-390, limits assumed); experiment: ELISA binning; competitor Ibalizumab, 100 ng/mL huCD4-HIS, anti-HIS HRP detection (background 45, max binding 3000000)
T2 construct: Named only in the head of the ELISA binning column; not shown: HIS tag

[5] = target: T1, human CD4 on cells (SKW3 cells; human …); experiment: FACS primary screen, non-clonal hybridoma supernatant; SKW3 WT vs SKW3 CD4 KO cells, anti-hKappa-FITC
[6] = target: T1, human CD4 on cells (SKW3 cells; human …); experiment: FACS confirmation, supernatant on human PBMCs, anti-mFc 647, percent of viable cells
[7] = target: T1, human CD4 on cells (SKW3 cells; human …); experiment: SKW3 FACS binning; competitor OKT4a added after supernatant, anti-hu A647 secondary (background 5000, max binding 35000)
[8] = target: T1, human CD4 on cells (SKW3 cells; human …); experiment: FACS primary screen, non-clonal hybridoma supernatant; SKW3 WT vs SKW3 CD4 KO cells, anti-mFc-647
[9] = target: T1, human CD4 on cells (SKW3 cells; human …); experiment: FACS confirmation, supernatant on human PBMCs, anti-mFc 647, CD4+ gate
[10] = target: T1, human CD4 on cells (SKW3 cells; human …); experiment: FACS confirmation, supernatant on SKW3 WT cells, anti-hu Kappa FITC (Bkrd gMFI = 2500)
[11] = target: T3, huCD4-HIS (human, UniProt P01730 26-390, limits assumed); experiment: ELISA binning; competitor ibalizumab; 100 ng/mL huCD4-HIS, anti-HIS HRP; background 45, max binding 3000000
T3 construct: the ELISA is not described in the text of this stretch; also called human CD4-HIS

[12] = target: T4, human CD4 on cells (SKW3 cells; human PBMCs) (human, UniProt P01730 26-458); experiment: FACS binning on SKW3 cells; competitor RPA-T4-PE-Dazzle 594; background 783, max binding 15000
T4 construct: whole, on cells; SKW3 CD4 knockout cells served as the negative cell line in the primary screen; also called hCD4; huCD4

[13] = target: T4, human CD4 on cells (SKW3 cells; human …); experiment: FACS binning on SKW3 cells; competitor OKT4a; background 5000, max binding 35000
[14] = target: T4, human CD4 on cells (SKW3 cells; human …); experiment: FACS confirmation, supernatant on SKW3 cells; background gMFI 3300
[15] = target: T4, human CD4 on cells (SKW3 cells; human …); experiment: FACS primary screen, hybridoma supernatant, SKW3 vs SKW3 CD4 KO cells;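 also: flow cytometry on mixed SKW3 and dye-labeled SKW3 CD4 knockout cells after 30 min at 4 °C with supernatant, ratio of binding signal on parental versus knockout cells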
[16] = target: T4, human CD4 on cells (SKW3 cells; human …); experiment: FACS confirmation, supernatant on SKW3 cells; background gMFI 2500
[17] = target: T4, human CD4 on cells (SKW3 cells; human …); experiment: FACS confirmation, supernatant on human PBMCs;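 also: flow cytometry with hybridoma supernatants incubated on human PBMCs for 30 min at 4 °C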
[18] = target: T4, human CD4 on cells (SKW3 cells; human …); experiment: FACS binning on SKW3 cells; competitor OKT4-A488; background 2163, max binding 8200

| Binder | RPA-T4-PE-Dazzle 594 signal in binning [1] | OKT4 A488 signal in binning [2] | gMFI [3] | Ibalizumab ELISA binning signal [4] | SKW3 WT vs KO anti-hKappa-FITC [5] | CD4+ Percent Bound of Viable [6] | OKT4a anti-hu A647 signal in binning [7] | SKW3 WT vs KO anti-mFc-647 [8] | CD4+ gate RL1 Binding [9] | gMFI [10] | Ibalizumab ELISA binning signal [11] | RPA-T4-PE-Dazzle 594 signal with supernatant [12] | OKT4a signal (anti-hu A647) with supernatant [13] | gMFI on SKW3 WT, anti-mFc 647 [14] | SKW3 WT vs KO ratio, anti-hKappa-FITC [15] | SKW3 WT vs KO ratio, anti-mFc-647 [15] | gMFI on SKW3 WT, anti-hu Kappa FITC [16] | PBMCs CD4+ gate RL1 binding, anti-mFc 647 [17] | PBMCs CD4+ percent bound of viable [17] | OKT4-A488 signal with supernatant [18] |
| --- | --- | --- | --- | --- | --- | --- | --- | --- | --- | --- | --- | --- | --- | --- | --- | --- | --- | --- | --- | --- |
| 75110_01L08A (antibody, V domains shown, Tested as non-clonal hybridoma supernatant (AlivaMab Mouse Kappa), detected with anti-mouse Fc and anti-human kappa) VH: QVQLQESGPGLVKPSETLSLTCTVSGGSISHYYWSWIRQPPGKGLEWIGYIHYSGTTNYNPSLKSRVTISVDTSKNQLSLKLRSVTAADTAVYYCARDQGFSSGGMDVWGQGTTVTVSS VL: not shown | 19800 | 9750 | 18700 gMFI | 58200 | 2.6 fold | 27% | 9030 | 4.3 fold | 200000 | 5520 gMFI |  |  |  |  |  |  |  |  |  |  |
| 75110_02I18A (antibody, V domains shown, Tested as non-clonal hybridoma supernatant (AlivaMab Mouse Kappa), detected with anti-mouse Fc and anti-human kappa) VH: EVQVVESGGGLVQPGGSLRLSCAASGFTFSSYDMHWVRQATGKGLEWVSTIGTAGDTYYPGSVKGRFTISRENAKNSLYLQMNSLRAGDTAVYYCARGGYYYYGMDVWGQGTTVTVSS VL: EIVLTQSPGTLSLSPGERATLSCRASQSVSSSYLAWYQQKPGQSPRLLIHGASSRATGIPDRVSGSGSGTDFTLTISRLEPEDFAVYYCQQYGSSPFTFGPGTKVDIK | 4410 | 9230 | 16500 gMFI | 291000 | 2.2 fold | 29% | 44800 | 4.2 fold | 275000 | 5370 gMFI |  |  |  |  |  |  |  |  |  |  |
| 75110_05F19A (antibody, V domains shown, Tested as non-clonal hybridoma supernatant (AlivaMab Mouse Kappa), detected with anti-mouse Fc and anti-human kappa) VH: EVQLVESGGGLVQPGGSLRLSCAASGFTFSNYDVHWVRQPTGKGLEWVSTIGTAGDTYYPGSVKGRFTISRENAKNSLYLQMNSLRAGDTAVYYCARGGYDYYGLDVWGQGTTVTVSS VL: not shown | 15900 | 8920 | 42200 gMFI | 45 | 2.8 fold | 31% | 30000 | 10.6 fold | 281000 | 8510 gMFI |  |  |  |  |  |  |  |  |  |  |
| 75110_04G02A (antibody, V domains shown, Tested as non-clonal hybridoma supernatant (AlivaMab Mouse Kappa), detected with anti-mouse Fc and anti-human kappa) VH: not shown VL: DIVMTQSPDSLAVSLGERATINCKSSQSVLYSSNNKNYLAWYQQKPGQPPKLLFYWASARESGVPDRFSGSGSGTDFTLTISSLQAEDVALYYCQQYFGSFPTFGQGTKLEIK | 12100 | 9330 | 12000 gMFI | 45 | 1.5 fold | 27% | 22500 | 6.6 fold | 178000 | 4060 gMFI |  |  |  |  |  |  |  |  |  |  |
| 75110_05A11A (antibody, V domains shown, Tested as non-clonal hybridoma supernatant (AlivaMab Mouse Kappa), detected with anti-mouse Fc and anti-human kappa) VH: EVQLVESGGGLVKPGGSLTLSCAASGFTFSNTWMSWVRQAPGKGLEWVGRIKSKIDGGTTDYAAPVKGRFTISRDDSKNTLYLQMNSLKTEDTAVYYCTTSGTYSSGWGLFDYWGQGTLVTVSS VL: DIQMTQSPSSLSASVGDRVTITCQASQDISNYLNWYQQKPGKAPKLLIYDTSNLEAGVPSRFSGSGSGTHFTLTISSLQPEDIATYYCQQYDNLPFTFGGGTRVEIK | 17200 | 8160 | 24400 gMFI | 45 | 1.8 fold | 26% | 35000 | 3.4 fold | 247000 | 6620 gMFI |  |  |  |  |  |  |  |  |  |  |
| 75110_05E13A (antibody, V domains shown, Tested as non-clonal hybridoma supernatant (AlivaMab Mouse Kappa), detected with anti-mouse Fc and anti-human kappa) VH: EVQLVESGGDLVKPGGSLRLSCAASGFSFSNAWMSWVRQAPGKGLEWVGRVESKTDGGTTDYAAPVKDRFTISRDDSKYTLYLQMNSLKTEDSAVYYCTIGGGFGLELYGFFDYWGQGTLVTVSS VL: DIQMTQSPSTLSASVGDRVTITCRASQSISSWLAWYQQKPGKAPMLLIYKASSLESGVPSRFSGSGSGTEFTLTISSLQPDDFATYYCLQYNSYYTFGQGTKLEIK | 16500 | 9330 | 45600 gMFI | 45 | 1.9 fold | 26% | 36400 | 5.8 fold | 231000 | 8050 gMFI |  |  |  |  |  |  |  |  |  |  |
| 75110_07J24A (antibody, V domains shown, Tested as non-clonal hybridoma supernatant (AlivaMab Mouse Kappa), detected with anti-mouse Fc and anti-human kappa) VH: QAQLQESGPGLVKPSETLSLTCTVSGGSISSYYYNWIRQPAGKGLEWIGRIYTSGRTDYNPSLKSRVTMSADTSKNQFSLKLSSVTAADTAVYYCARDEGPTDAFDIWGQGTMVTVSS VL: DIVMTQTPLSLPVTPGEPASISCRSSQSLLDSDDGNTYLDWYLQKPGQSPHLLIYTLSYRASGVPDRFSGSGSGSDFTLKISRVEAEDVGVYYCMQRIEFPFTFGPGTKVDIK | 8460 | 7730 | 30900 gMFI | 215000 | 1.8 fold | 33% | 33800 | 6.2 fold | 234000 | 5830 gMFI |  |  |  |  |  |  |  |  |  |  |
| 75110_14P08A (antibody, V domains shown, Tested as non-clonal AlivaMab Mouse Kappa hybridoma supernatant (detected with anti-mouse Fc gamma and anti-human kappa)) VH: QVQLQESGPGLVKSSETLSLTCTDSGDSIRSYYWNWIRQPAGKGLEWIGRIYASGSTNYNPSLKSRVIMSADTSKNRFSLKLSSVTAADTAVYYCARDGGVGDSLDYWGQGTLVTVSS VL: DIVMTQTPLSLPVTPGEPASISCRSSQSLLDSDDGNTYLDWYLQKPGQSPQLLIYTLSYRASGVPDRFSGSGSGTDFTLKISRVEAEDVGVYYCMQRIEFPFTFGPGTKVDIK |  |  |  |  |  |  |  |  |  |  | 2.2e+06 | 16400 | 38400 | 20300 gMFI | 2.2 | 6.7 | 5580 gMFI | 292000 | 30% | 9100 |
| 75110_02N15A (antibody, V domains shown, Tested as non-clonal AlivaMab Mouse Kappa hybridoma supernatant (detected with anti-mouse Fc gamma and anti-human kappa)) VH: EVQLVESGGGLVQPGGSLRLSCAASGFTFSSYWMSWVRQAPGKGLEWVANINEDGNEKYYVDSVKGRFTISRDNAKNSLFLQMNSLRAEDTAVYFCAREGGQWLALDHWGQGALVTVSS VL: DIQMTQSPSSVSASVGDRVTITCRASQGISSWLAWYQQKPGKAPKFLISGASSLQSGVPSRFSGSGSGTDFTLTISSLQPEDFATYYCQQANSFPWTFGQGTKVEFK |  |  |  |  |  |  |  |  |  |  | 1.98e+06 | 14200 | 42900 | 15900 gMFI | 2.1 | 4.9 | 5000 gMFI | 250000 | 27% | 3020 |
